Laboratory results taken from patent publication US20240124917, “COMPOSITIONS AND METHODS FOR NUCLEIC ACID DETECTION BY LATERAL FLOW ASSAYS” (King Abdullah University of Science and Technology, published 2024).

Legend:
[1] = biological target: T1, dCas9-dVirD2 fusion (dead Cas9, dead VirD2) (Streptococcus pyogenes / Agrobacterium …, UniProt Q99ZW2 SEQ:46-1413+1453-1899); assay: EMSA; dead VirD2 does not bind RB probe
[2] = biological target: T2, Cas9-VirD2 fusion (wild-type SpCas9 to wild-type VirD2) (Streptococcus pyogenes / Agrobacterium …, UniProt Q99ZW2;P06668 Q99ZW2:1-1368,P06668:1-424); assay: EMSA; different shift pattern; 250 nM each, 10 mM MgCl2; conditions: tags: SpCas9-VirD2 fusion, expressed in E. coli BL21(DE3)
[3] = biological target: T3, VirD2-Cas9 fusion (wild-type VirD2 to wild-type SpCas9) (/ Streptococcus pyogenes, UniProt P06668;Q99ZW2 P06668:1-424,Q99ZW2:1-1368); assay: EMSA; denaturing gel mobility shift, Coomassie; 250 nM each, 10 mM MgCl2; conditions: tags: VirD2-SpCas9 fusion, expressed in E. coli BL21(DE3)
[4] = biological target: T4, VirD2-dCas9 fusion (/ Streptococcus pyogenes, UniProt Q99ZW2 SEQ:46-492+510-1877); assay: EMSA; denaturing gel mobility shift; 10 mM MgCl2
[5] = biological target: T5, dCas9-VirD2 fusion (Streptococcus pyogenes / Agrobacterium …, UniProt Q99ZW2 SEQ:46-1413+1453-1899); assay: EMSA; denaturing gel mobility shift; 10 mM MgCl2
[6] = biological target: T3, VirD2-Cas9 fusion (wild-type VirD2 to …); assay: covalent binding, anti-biotin western; 10 mM MgCl2, 37 C; conditions: tags: VirD2-SpCas9 fusion, expressed in E. coli BL21(DE3); label: 3' biotin
[7] = biological target: T4, VirD2-dCas9 fusion; assay: as above; conditions: label: 3' biotin
[8] = biological target: T5, dCas9-VirD2 fusion; assay: as above; conditions: label: 3' biotin
[9] = biological target: T2, Cas9-VirD2 fusion (wild-type SpCas9 to …); assay: as above; conditions: tags: SpCas9-VirD2 fusion, expressed in E. coli BL21(DE3); label: 3' biotin
[10] = biological target: T1, dCas9-dVirD2 fusion (dead Cas9, dead …); assay: negative control, dead VirD2; anti-biotin western; conditions: label: 3' biotin

B1: pstv-cnt-RB-ssDNA (ssDNA)
DNA: CAGATCAATTCTCTTAGGTTTACCCGCCAATATATCCTGTCAAACACTGATAGTTTTCACAGTAGGGTG
B1: no binding [1]; binds [2]; binds [3]. B1: binds [4]; binds [5].

GTTTACCCGCCAATATATCCTGTCATTTTTTTTTT (ssDNA) [virD2 reporter-B-L]: binds [6]; binds [7]; binds [8]. GTTTACCCGCCAATATATCCTGTCATTTTTTTTTT (ssDNA) [virD2 reporter-B-L]: binds [9]; no binding [10].
